Substitutions are numbered along the chain they refer to. Values belong to the binder of their own block, whether it stands above or below them.
Legend:
[1] = biological target: T1, Human active C1s (Complement Technology) (human, UniProt P09871 16-688); assay: cell-based or functional assay
T1 sequence: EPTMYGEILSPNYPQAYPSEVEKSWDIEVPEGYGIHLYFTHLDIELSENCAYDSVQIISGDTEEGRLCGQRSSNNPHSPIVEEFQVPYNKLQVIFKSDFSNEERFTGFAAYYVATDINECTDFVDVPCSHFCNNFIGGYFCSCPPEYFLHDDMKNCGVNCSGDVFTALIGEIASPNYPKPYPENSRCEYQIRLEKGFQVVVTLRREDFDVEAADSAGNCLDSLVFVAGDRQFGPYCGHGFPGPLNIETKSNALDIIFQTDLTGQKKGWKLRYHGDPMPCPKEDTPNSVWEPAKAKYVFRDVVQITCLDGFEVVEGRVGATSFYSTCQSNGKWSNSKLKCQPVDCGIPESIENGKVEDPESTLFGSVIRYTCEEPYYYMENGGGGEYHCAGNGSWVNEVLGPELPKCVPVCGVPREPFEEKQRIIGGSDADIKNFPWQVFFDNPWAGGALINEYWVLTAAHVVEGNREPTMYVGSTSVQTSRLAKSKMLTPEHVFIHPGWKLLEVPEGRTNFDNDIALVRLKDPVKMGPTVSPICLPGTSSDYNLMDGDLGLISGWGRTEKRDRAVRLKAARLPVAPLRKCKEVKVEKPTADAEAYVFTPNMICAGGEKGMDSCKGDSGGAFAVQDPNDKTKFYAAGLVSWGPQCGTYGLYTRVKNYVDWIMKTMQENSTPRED

[2] = biological target: T1, Human active C1s (Complement Technology); assay: affinity of bispecific purified from CHO cells (SPR; details not restated)
[3] = biological target: T2, His-tagged recombinant human TfR (produced in-house) (human, UniProt P02786 89-760); assay: as above
T2 construct: also called hTfR; transferrin receptor 1
T2 sequence (P02786 89-760 limits assumed): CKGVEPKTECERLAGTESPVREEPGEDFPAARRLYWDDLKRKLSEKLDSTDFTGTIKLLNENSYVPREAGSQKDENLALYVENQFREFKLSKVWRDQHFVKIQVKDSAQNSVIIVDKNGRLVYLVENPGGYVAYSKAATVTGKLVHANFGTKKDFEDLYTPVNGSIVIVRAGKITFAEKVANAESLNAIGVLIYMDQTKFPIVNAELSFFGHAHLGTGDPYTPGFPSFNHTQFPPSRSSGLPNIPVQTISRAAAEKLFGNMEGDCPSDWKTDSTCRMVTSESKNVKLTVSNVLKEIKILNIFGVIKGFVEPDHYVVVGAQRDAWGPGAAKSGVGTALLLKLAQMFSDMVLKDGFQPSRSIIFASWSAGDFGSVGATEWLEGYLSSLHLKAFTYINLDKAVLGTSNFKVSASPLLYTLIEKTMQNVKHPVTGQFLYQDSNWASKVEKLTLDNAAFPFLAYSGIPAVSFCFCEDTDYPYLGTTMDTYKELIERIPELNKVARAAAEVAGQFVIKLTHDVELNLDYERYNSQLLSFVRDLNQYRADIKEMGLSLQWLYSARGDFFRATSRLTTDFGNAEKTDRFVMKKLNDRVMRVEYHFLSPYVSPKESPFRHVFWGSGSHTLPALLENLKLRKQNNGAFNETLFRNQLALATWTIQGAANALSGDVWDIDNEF

cynomolgus TfR = biological target: T3, cynomolgus TfR (cynomolgus, UniProt H9EXL1 89-760 (rhesus entry)); assay: as above
T3 construct: also called Cyno TfR; cTfR
T3 sequence (chain, as listed by the source): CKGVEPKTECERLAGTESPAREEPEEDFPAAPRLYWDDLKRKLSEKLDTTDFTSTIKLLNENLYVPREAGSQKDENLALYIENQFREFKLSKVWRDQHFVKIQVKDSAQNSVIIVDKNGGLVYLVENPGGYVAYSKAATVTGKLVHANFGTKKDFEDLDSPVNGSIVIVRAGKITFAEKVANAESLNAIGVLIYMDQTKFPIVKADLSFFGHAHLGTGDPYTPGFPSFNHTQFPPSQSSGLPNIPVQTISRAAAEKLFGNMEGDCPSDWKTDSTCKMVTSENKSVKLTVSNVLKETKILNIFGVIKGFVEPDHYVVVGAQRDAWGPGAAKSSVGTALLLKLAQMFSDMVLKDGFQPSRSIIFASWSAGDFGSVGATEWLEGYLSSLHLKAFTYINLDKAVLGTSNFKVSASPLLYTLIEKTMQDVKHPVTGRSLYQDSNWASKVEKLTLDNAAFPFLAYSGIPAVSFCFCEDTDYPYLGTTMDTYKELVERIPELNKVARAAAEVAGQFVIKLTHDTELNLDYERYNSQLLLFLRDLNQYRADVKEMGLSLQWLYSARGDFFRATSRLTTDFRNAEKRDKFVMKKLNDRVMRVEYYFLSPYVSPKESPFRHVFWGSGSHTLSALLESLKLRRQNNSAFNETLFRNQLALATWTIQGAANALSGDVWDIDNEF

cynomolgus aC1s = biological target: T4, cynomolgus aC1s (cynomolgus, UniProt A0A2K5VQX9 16-685); assay: as above
T4 construct: also called Cyno aC1s; caC1s
T4 sequence: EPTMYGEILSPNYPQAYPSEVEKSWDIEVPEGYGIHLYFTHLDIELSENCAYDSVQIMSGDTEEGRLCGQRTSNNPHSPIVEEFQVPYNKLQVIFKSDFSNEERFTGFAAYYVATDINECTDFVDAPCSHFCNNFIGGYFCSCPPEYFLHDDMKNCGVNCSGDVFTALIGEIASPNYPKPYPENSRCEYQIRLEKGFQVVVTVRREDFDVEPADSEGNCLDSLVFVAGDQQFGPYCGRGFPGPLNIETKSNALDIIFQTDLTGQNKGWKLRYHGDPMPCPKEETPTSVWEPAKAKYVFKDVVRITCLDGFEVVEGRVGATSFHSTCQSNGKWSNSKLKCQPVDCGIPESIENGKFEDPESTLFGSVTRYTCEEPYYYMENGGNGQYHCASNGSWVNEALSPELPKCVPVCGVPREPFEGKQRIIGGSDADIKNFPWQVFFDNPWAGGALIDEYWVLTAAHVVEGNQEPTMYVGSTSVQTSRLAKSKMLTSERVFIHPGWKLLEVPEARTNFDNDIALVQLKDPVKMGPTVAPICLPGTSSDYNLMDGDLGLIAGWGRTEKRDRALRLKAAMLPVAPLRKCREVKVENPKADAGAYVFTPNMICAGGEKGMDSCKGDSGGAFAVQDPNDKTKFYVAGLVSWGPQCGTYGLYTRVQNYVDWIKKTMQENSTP

[4] = biological target: T1, Human active C1s (Complement Technology); assay: SPR Biacore T200, antibody captured on anti-human Fc, human active C1s as analyte, 1:1 fit
Description: (§1) TfR and C1s binding using surface plasmon resonance (SPR): Analysis of antibody binding to TfR was performed on a Biacore™ T200 instrument using anti-His capture at 25° C. Anti-His (Qiagen) was buffer exchanged into PBS pH 7.2, diluted to 25 μg/mL in 10 mM sodium acetate pH 4.0 and directly immobilized to a series S CM5 chip to a surface density of ˜10,000 RU using the amine coupling kit provided by Cytiva. His-tagged recombinant human TfR (produced in-house) was diluted in HBS-EP+ pH 7.4 running buffer (10 mM HEPES pH 7.4, 150 mM NaCl, 3 mM EDTA, 0.05% surfactant P20) and injected for 5 sec at 20 μL/min flowrate to obtain capture level of 20 RU. Antibodies were serially diluted 2-fold from 90 to 5.625 nM in running buffer and injected over the captured TfR for 3 min followed by 9 min dissociation in buffer at 30 μL/min. Each cycle was regenerated with 10 mM glycine pH 1.5. To measure C1s binding, anti-human Fc (Jackson) was directly immobilized to a CM5 chip using amine chemistry. Antibodies were diluted to 2.5 μg/mL in HBS-EP+ pH 7.4 and captured to the chip for 15 sec at 20 μL/min flowrate. Human active C1s (Complement Technology) was serially diluted 2-fold from 20 to 0.625 nM in running buffer and injected over the captured antibodies for 180 sec at 50 μL/min followed by 9 min dissociation in buffer. The bound complex was removed from the chip each cycle with 40 mM HCl and 0.85% phosphoric acid. Sensorgrams were processed using the Biacore™ Insight software and fit to a 1:1 binding model to obtain kinetic constants.
(§2) The six bispecific anti-aC1s/anti-TfR antibodies were first tested for their affinity for both TfR and aC1s via surface plasmon resonance (SPR) (Table 2).

[5] = biological target: T1, Human active C1s (Complement Technology); assay: cell-based or functional assay; remark: listed apart in the source
[6] = biological target: T1, Human active C1s (Complement Technology); assay: cell-based or functional assay; remark: listed apart in the source
[7] = biological target: T2, His-tagged recombinant human TfR …; assay: hTfR affinity, SPR (method not restated for Table 1; same value as Table 2)
Description: as §1, §2

[8] = biological target: T2, His-tagged recombinant human TfR …; assay: SPR Biacore T200, His-tagged human TfR captured on anti-His, antibody as analyte, 25 C, 1:1 fit
Description: as §1, §2

[9] = biological target: T2, His-tagged recombinant human TfR …; assay: SPR Biacore T200 (Table 2)
Description: as §1, with “The bound complex was removed from the chip each cycle with 40 mM HCl and 0.85% phosphoric acid. Sensorgrams were processed using the Biacore™ Insight software and fit to a 1:1 binding model to obtain kinetic constants.” left out

IC50, Wieslab Complement Pathway Assay [1]: 1.04 µg/mL
IC90, Wieslab Complement Pathway Assay [1]: 7.55 µg/mL
Kd [2]: 2.26 nM
Kd [3]: 39.3 nM
Kd (cynomolgus TfR): 72.5 nM
Kd (cynomolgus aC1s): 0.252 nM
B1: bispecific anti-aC1s (L4H5)/anti-TfR (531v25.v6) antibody (bispecific antibody, human IgG4 S228P, kappa)
heavy 1: QVQLVQSGAEVKKPGASVKLSCTASGFNIKDDYIHWVKEAPGQGLEWIGRIDPADGHTKYAPKFQVKVTITAATSTSTAYLQLSSLRSEDTAVYYCARYGYGREVFDYWGQGTTVTVSSASTKGPSVFPLAPCSRSTSESTAALGCLVKDYFPEPVTVSWNSGALTSGVHTFPAVLQSSGLYSLSSVVEVPSSSLGTKTYTCNVDHKPSNTKVDERVESDYGPPCPPCPAPEFEGGPSVFLFPPKPKDTLMISRTPEVTCVVVDVSQEDPEVQFNWYVDGVEVHNAKTKPREEQFNSTYRVVSVLTVLHQDWLNGKEYKCKVSNKGLPSSIEKTISKAKGQPREPQVCTLPPSQEEMTKNQVSLSCAVKGFYPSDIAVEWESNGQPENNYKTTPPVLDSDGSFFLVSRLTVDKSRWQEGNVFSCSVLHEALHSRFTQKSLSLSLG
light 1: DIVMTQSPDSLAVSLGERATISCKSSQSVDYEGDSYLNWYQKKPGQPPKLLIYDASNLESGVPDRFSGSGSGTDFTLTISSLQAEDVAVYYCQQSNEDPWTFGQGTKVEIKRTVAAPAVFIFPPSKKQLKSGTASVVCLLKNFYPREAKVQWKVDNALQSGNSQESVTEQDSKDSTYSLSSTLTLSKADYEKHKVYACEVTHQGLSSPVTKSFNRGEC
heavy 2: QVQLVQSGAEVKKPGASVKVSCKASGYTFTRYYLNWVRKAPGQGLEWIGMIDPSVSETHYAQKFQGRATLTVDKSTSTAYMELSSLRSEDTAVYYCSQIRLPYYYAMDSWGQGTTVTVSSASTKGPSVFPLAPCSRSTSESTAALGCLVKDYFPEPVTVSWNSGALTSGVHTFPAVLQSSGLYSLSSVVTVPSSSLGTKTYTCNVDHKPSNTKVDKRVESKYGPPCPPCPAPEFEGGPSVFLFPPKPKDTLMISRTPEVTCVVVDVSQEDPEVQFNWYVDGVEVHNAKTKPREEQFNSTYRVVSVLTVLHQDWLNGKEYKCKVSNKGLPSSIEKTISKAKGQPREPQVYTLPPCQEEMTKNQVSLWCLVKGFYPSDIAVEWESNGQPENNYKTTPPVLDSDGSFFLYSRLTVDKSRWQEGNVFSCSVLHEALHSHYTQKSLSLSLG
light 2: DIQMTQSPSSLSASVGDRVTITCRASQDIESFLNWYQEKPGKAPKLLIYYTSRLQSGVPSRFSGSGSGTDYTLTISSLQPEDFATYYCQQGNTLPRTFGGGTKVEIKRTVAAPSVFIFPPSDEQLKSGTASVVCLLNNFYPREAKVQWKVDNALQSGNSQESVTEQDSKDSTYSLSSTLTLSKADYEKHKVYACEVTHQGLSSPVTKSFNRGEC
notes: Purified from CHO cells; monovalent for aC1s

IC50, Wieslab Complement Pathway Assay [1]: 1.23 µg/mL
IC90, Wieslab Complement Pathway Assay [1]: 9.7 µg/mL
Kd [2]: 2.64 nM
Kd [3]: 34.3 nM
Kd (cynomolgus TfR): 48.9 nM
Kd (cynomolgus aC1s): 0.315 nM
B2: bispecific anti-aC1s (L2H5)/anti-TfR (531v25.v6) antibody (bispecific antibody, human IgG4 S228P, kappa)
heavy 1: B1 heavy 1
light 1: B1 light 1 with D74A
heavy 2: B1 heavy 2
light 2: B1 light 2
notes: as for B1

IC50, Wieslab Complement Pathway Assay [1]: 1.37 µg/mL
IC90, Wieslab Complement Pathway Assay [1]: 10.2 µg/mL
Kd [2]: 3.19 nM
Kd [3]: 29.9 nM
Kd (cynomolgus TfR): 52.8 nM
Kd (cynomolgus aC1s): 0.243 nM
B3: bispecific anti-aC1s (L2)/anti-TfR (531v25.v6) antibody (bispecific antibody, human IgG4 S228P, kappa)
heavy 1: B1 heavy 1 with A73D, Q82E
light 1: B1 light 1 with D74A
heavy 2: B1 heavy 2
light 2: B1 light 2
notes: as for B1

Kd [4]: 0.75 nM
koff [4]: 0.00246 s⁻¹
kon [4]: 3.31e+06 M⁻¹ s⁻¹
IC50, C3d deposition on neurons in iPSC tricultures with serum [5]: 29.3 µg/mL
IC50, Wieslab Complement Pathway Assay (classical pathway, 1% NHS) [6]: 1.63 µg/mL
Kd [7]: 22.6 nM
Kd [8]: 22.6 nM
koff [8]: 0.00413 s⁻¹
kon [8]: 183000 M⁻¹ s⁻¹
B4: aC1s_088 × 531v25 IgG4-PE/dK (bispecific antibody, V domains shown)
VH 1: QVQLVQSGAEVKKPGASVKLSCTASGFNIKDDYIHWVKEAPGQGLEWIGRIDPADGHTKYAPKFQVKVTITADTSTSTAYLELSSLRSEDTAVYYCARYGYGREVFDYWGQGTTVTVSS
VL 1: DIVLTQSPDSLAVSLGERATISCKASQSVDYDGDSYMNWYQKKPGQPPKILIYDASNLESGIPARFSGSGSGTDFTLTISSLEPEDFAIYYCQQSNEDPWTFGGGTKVEIK
VH 2: QVQLVQSGAEVKKPGASVKVSCKASGYTFTRYYLNWVRKAPGQGLEWIGMIDPSVSETHYAQKFQGRATLTVDKSTSTAYMELSSLRSEDTAVYYCSQIRLPYYYAMDSWGQGTTVTVSS
VL 2: DIQMTQSPSSLSASVGDRVTITCRASQDISSFLNWYQEKPGKAPKLLIYYTSRLQSGVPSRFSGSGSGTDYTLTISSLQPEDFATYYCQQGNTLPRTFGGGTKVEIK
notes: IgG4-PE Fc, dK, with charge pairing mutations; The starred variable domains are used, as for m5; also called aC1s_088-CM × 531v25 IgG4

Kd [4]: 0.66 nM
koff [4]: 0.00275 s⁻¹
kon [4]: 4.18e+06 M⁻¹ s⁻¹
IC50, C3d deposition on neurons in iPSC tricultures with serum [5]: 13.9 µg/mL
IC50, Wieslab Complement Pathway Assay (classical pathway, 1% NHS) [6]: 1.67 µg/mL
Kd [8]: 10.3 nM
koff [8]: 0.00197 s⁻¹
kon [8]: 192000 M⁻¹ s⁻¹
fold higher affinity than the 531v25 and 531v25.v6 variants [9]: ~2 fold
B5: aC1s_088 × 531v23 IgG1-NNAS/dK (bispecific antibody, V domains shown)
VH 1: B4 VH 1
VL 1: B4 VL 1
VH 2: B4 VH 2
VL 2: B4 VL 2 with Q55H
notes: IgG1-NNAS Fc, dK, with charge pairing mutations; The starred variable domains are used, as for m5; also called v23 variant

Kd [4]: 0.76 nM
koff [4]: 0.00273 s⁻¹
kon [4]: 3.59e+06 M⁻¹ s⁻¹
IC50, C3d deposition on neurons in iPSC tricultures with serum [5]: 7.48 µg/mL
IC50, Wieslab Complement Pathway Assay (classical pathway, 1% NHS) [6]: 1.79 µg/mL
Kd [7]: 18.9 nM
Kd [8]: 18.9 nM
koff [8]: 0.00304 s⁻¹
kon [8]: 161000 M⁻¹ s⁻¹
B6: aC1s_088 × 531v25.v6 IgG4-PE/dK (bispecific antibody, V domains shown)
VH 1: B4 VH 1
VL 1: B4 VL 1
VH 2: B4 VH 2
VL 2: B4 VL 2 with S30E
notes: IgG4-PE Fc, dK, with charge pairing mutations; The starred variable domains are used, as for m5; also called aC1s_088-CM × 531v25.v6 IgG4
